According to US11306331B2, “Processes for the production of hydroxycinnamic acids using polypeptides having tyrosine ammonia lyase activity” (CysBio ApS, priority 2014, dated 2022):

Experiments:
[1] = test system: E. coli BL21(DE3)pLysS cells; experiment: Specific production of pHCA and CA by E. coli expressing TAL/PAL enzymes; assay type: cell-based, Escherichia coli; settings: 24 h after supplementation, +/- standard deviation
Description: Plasmids carrying the genes were transformed into electrocompetent E. coli BL21(DE3)pLysS cells (Life Technologies) and selected on LBplates containing 50 ug/mL streptomycin. The strains were grown in M9 minimal media containing glucose as a carbon source, and expression was induced by adding 1 mM IPTG at an optical density at 600 nm of 0.6. After three hours of growth at 30° C. the cultures were supplemented with 2 mM tyrosine, phenylalanine or histidine. After further 24 hours, samples were withdrawn for determination of the optical density at 600 nm and for the isolation of the supernatant.
The concentration of pHCA and CA in the supernatant was quantified by high performance (HPLC) and compared to chemical standards. HPLC was done on a Thermo setup using a HS-F5 column and mobile phases: 5 mM ammonium formate pH 4.0 (A) and acetonitrile (B) at 1.5 mL min-1, using a gradient elution starting at 5% B. From 0.5 min after injection to 7 min, the fraction of B increased linearly from 5% to 60%, and between 9.5 min and 9.6 the fraction of B decreased back to 5%, and remaining there until 12m pHCA and CA were quantified by measuring absorbance at 333 nm and 277 nm, respectively. The production was tested without addition of precursors or the addition of either phenylalanine or tyrosine to the growth medium.
The specific production was calculated as micromolar (μM) concentration per unit of optical density of the culture at 600 nm, and standard deviations were calculated based on triplicate experiments. HaXAL1, HaXAL2 and FjXAL are the most specific enzymes and those that reach the highest yields.

[2] = test system: Saccharomyces cerevisiae CEN.PK102-5B; experiment: Specific production of pHCA and CA by S. cerevisiae expressing TAL enzymes; assay type: cell-based; settings: 72 h, 30° C., +/- standard deviation
Source text: A number of the previously characterized enzymes were characterized when expressed in Saccharomyces cerevisiae. Genes encoding HaXAL1 and FjXAL were synthesized with codon optimization for S. cerevisiae available by GeneArt (Life Technologies), and were named HaXAL1 Sc and FjXALSc. Genes were amplified using the oligonucleotide (refer to specific name) shown in Table 6, and inserted by uracil-excision into the vector pCfB132 together with the PPGK1 promoter amplified by primers PPGK1_fw and PPGK1_rv (Jensen et al., 2014). The finished plasmids were transformed into Saccharomyces cerevisiae CEN.PK102-5B (MAT a ura3-52 his3Δ1 leu2-3/112 MAL2-8c SUC2) using a standard lithium acetate transformation protocol and selected for on synthetic drop-out media plates lacking uracil.
Cells were grown in SC medium without uracil, and diluted into Delft medium or Feed-In-Time (FIT) medium (m2p-labs) supplemented with leucine and histidine. After 72 h of incubation at 30° C. with shaking, samples were taken for the analysis of optical density at 600 nm and for clarification of the supernatant, which was analyzed by HPLC as described in example 1. The specific production was calculated as micromolar (μM) concentration per unit of optical density of the culture at 600 nm and is shown in Table 4.

[3] = test system: L. lactis NZ9000ΔldhΔldhB; experiment: Specific pHCA and CA productivity of L. lactis strains expressing TAL/PAL enzymes in CDM; assay type: cell-based, Lactococcus lactis; settings: CDM
Source text: The synthetic RsXALI (protein GI 129592) and RmXALI (protein GI 126464011) genes, codon optimized for Lactococcus lactis (GeneArt), were cloned into the nisin inducible expression vector pNZ8048 (Kuipers et al., 1998) as follows: RsXALI (SEQ ID NO: 56) and RmXALI (SEQ ID NO: 57) genes and the vector were PCR amplified using the primers listed in Table 7, and were assembled in a single-tube isothermal reaction using the Gibson Assembly Master Mix (New England Biolabs). Reaction products were ethanol-precipitated and suspended in double distilled water before transformation into L. lactis by electroporation as described by Holo and Nes (1995). The synthetic genes encoding SeSam8, R_XAL, HaXAL1 and FjXAL described in a previous example above were amplified by PCR using the primer pairs listed in Table 1, digested with specific restriction enzymes, and cloned in-between the NcoI and XbaI restriction sites of pNZ8048. The plasmids were obtained and maintained in L. lactis NZ9000 (Kuipers et al., 1998) and the gene sequences of the different constructs were verified by sequencing.
To assess pHCA production, TAL-expression vectors were transformed into a strain derived from NZ9000, but with deletion of the genes Idh and dhB (NZ9000ΔldhΔldhB). A control strain was also constructed by transformation of NZ9000ΔldhΔldhB with empty expression vector pNZ8048.
For molecular biology procedures, L. lactis strains were cultivated as batch cultures (flasks) without aeration in M17 medium (Difco™, USA) supplemented with 0.5% glucose (w/v) at 30° C. To assess pHCA production, strains were grown as static cultures in chemically defined medium (CDM; Poolman and Konings, 1988) containing 1% glucose (wt/vol) without pH control (initial pH 6.5 or 7.0) and supplemented with 1.7 or 3.7 mM L-tyrosine. Plasmid selection was achieved by addition of 5 μg mL^−1 chloramphenicol to the growth medium. Growth was monitored by measuring OD600. For heterologous expression of cloned tyrosine ammonia lyases, L. lactis strains were grown in CDM and nisin (1.5 μg L^−1) was added at an OD600 of 0.3-0.4. Samples (1 mL) of cultures were collected at different points during growth; centrifuged (16,100×g, 10 min, 4° C.) and the supernatants stored at −20° C. until analysis by HPLC as described in a previous example above. […] The first six columns are results from media containing 1.7 mM tyrosine. The seventh and ninth columns represent samples from strains grown in media containing 3.7 mM tyrosine, and the eighth and ninth columns are data from media with 68.5 mM 3-(N-morpholino)propanesulfonic acid (MOPS) and initial pH adjusted to 7.0 rather than 6.5.

Molecule	Specific production of CA ([1]; M9 + Phe (2 mM)) [μM OD600-1]	Specific production of pHCA ([1]; M9 + Phe (2 mM)) [μM OD600-1]	Specific production of CA ([1]; M9 + Tyr (2 mM)) [μM OD600-1]	Specific production of pHCA ([1]; M9 + Tyr (2 mM)) [μM OD600-1]	Specific production of CA ([2]; Delft + Tyr (10 mM)) [μM OD600-1]	Specific production of pHCA ([2]; Delft + Tyr (10 mM)) [μM OD600-1]	Specific production of CA ([2]; Delft medium) [μM OD600-1]	Specific production of pHCA ([2]; Delft medium) [μM OD600-1]	Specific production of CA ([2]; FIT + Tyr (10 mM)) [μM OD600-1]	Specific production of pHCA ([2]; FIT + Tyr (10 mM)) [μM OD600-1]	Specific production of CA ([2]; FIT medium) [μM OD600-1]	Specific production of pHCA ([2]; FIT medium) [μM OD600-1]	production of CA [3]
RtXAL: previously described aromatic amino acid lyase of Rhodosporidium toruloides/Rhodotorula glutinis, protein GI 129593 (protein, UniProt P11544 1-716, looked up) Phenylalanine/tyrosine …: MAPSLDSISHSFANGVASAKQAVNGASTNLAVAGSHLPTTQVTQVDIVEKMLAAPTDSTLELDGYSLNLGDVVSAARKGRPVRVKDSDEIRSKIDKSVEFLRSQLSMSVYGVTTGFGGSADTRTEDAISLQKALLEHQLCGVLPSSFDSFRLGRGLENSLPLEVVRGAMTIRVNSLTRGHSAVRLVVLEALTNFLNHGITPIVPLRGTISASGDLSPLSYIAAAISGHPDSKVHVVHEGKEKILYAREAMALFNLEPVVLGPKEGLGLVNGTAVSASMATLALHDAHMLSLLSQSLTAMTVEAMVGHAGSFHPFLHDVTRPHPTQIEVAGNIRKLLEGSRFAVHHEEEVKVKDDEGILRQDRYPLRTSPQWLGPLVSDLIHAHAVLTIEAGQSTTDNPLIDVENKTSHHGGNFQAAAVANTMEKTRLGLAQIGKLNFTQLTEMLNAGMNRGLPSCLAAEDPSLSYHCKGLDIAAAAYTSELGHLANPVTTHVQPAEMANQAVNSLALISARRTTESNDVLSLLLATHLYCVLQAIDLRAIEFEFKKQFGPAIVSLIDQHFGSAMTGSNLRDELVEKVNKTLAKRLEQTNSYDLVPRWHDAFSFAAGTVVEVLSSTSLSLAAVNAWKVAAAESAISLTRQVRETFWSAASTSSPALSYLSPRTQILYAFVREELGVKARRGDVFLGKQEVTIGSNVSKIYEAIKSGRINNVLLKMLA	180 ± 16	7.2 ± 1.3	5.9 ± 6.1	170 ± 10	21 ± 1.9	89 ± 13	18 ± 0.9	20 ± 0.8	57 ± 4.1	110 ± 8.8	88 ± 2	67 ± 4.3	
RmXALLI: RmXAL expressed from a synthetic gene codon optimized for Lactococcus lactis (SEQ ID NO: 57) (protein, RmXal coding sequence (codon optimized for Lactococcus lactis)) MAPSVDSIATSVANSLSNGLHAAAAANGGDVHKKTAGAGSLLPTTETTQLDIVERILADAGATDQIKLDGYTLTLGDVVGAARRGRSVKVADSPHIREKIDASVEFLRTQLDNSVYGVTTGFGGSADTRTEDAISLQKALLEHQLCGVLPTSMDGFALGRGLENSLPLEVVRGAMTIRVNSLTRGHSAVRIVVLEALTNFLNHGITPIVPLRGTISASGDLSPLSYIAASITGHPDSKVHVDGKIMSAQEAIALKGLQPVVLGPKEGLGLVNGTAVSASMATLALTDAHVLSLLAQALTALTVEAMVGHAGSFHPFLHDVTRPHPTQIEVARNIRTLLEGSKYAVHHETEVKVKDDEGILRQDRYPLRCSPQWLGPLVSDMIHAHAVLSLEAGQSTTDNPLIDLENKMTHHGGAFMASSVGNTMEKTRLAVALMGKVSFTQLTEMLNAGMNRALPSCLAAEDPSLSYHCKGLDIAAAAYTSELGHLANPVSTHVQPAEMGNQAINSLALISARRTAEANDVLSLLLATHLYCVLQAVDLRAMEFEHTKAFEPMVTELLKQHFGALATAEVEDKVRKSIYKRLQQNNSYDLEQRWHDTFSVATGAVVEALAGQEVSLASLNAWKVACAEKAIALTRSVRDSFWAAPSSSSPALKYLSPRTRVLYSFVREEVGVKARRGDVYLGKQEVTIGTNVSRIYEAIKSGCIAPVLVKMMA													the only enzyme resulting in production of CA
HaXAL2: tyrosine ammonia lyase derived from Herpetosiphon aurantiacus, protein GI 159898927, 552 aa (protein, listed as Herpetosiphon aurantiacus) MRHQVTLTGAGLTIEDVVRVARHHQPVGLTDNPEILQRIEDSCAYINDAVKASKPVYGVTTGFGGMADVVISSEEAADLQNNAIWYHKTGAGKLLPLADVRAAMLLRANSHMRGVSGIRLEIIQRMMTFLNANVTPHVREFGSIGASGDLVPLISITGALLGTDPAFRVDFDGENIDCLEALERLNLPRLELLPKEGLAMMNGTSVMTGIASNVLHDARILLGLALNIHGLMIQGLQGTNQSFHPFIHQHKAHTGQVWAADHMLQILEGSALSRDELDGRHEYREGDLIQDRYSLRCLPQFLGPIIDGMAYITHHLRVEINSANDNPLINTEAGASYHGGNFLGQYIGVGMDQLRYYMGLMAKHLDVQIALLVSPQFNNGLSASLVGNTDRKVNMGLKGLQISGNSIMPILGFLGNSLADRFPTHAEQFNQNINSQGFGSANLARQTIETLQQYIAIALIFGVQAVDLRTFKRTGHYNAVETLSPMTAKLYSAMREVVGKPISHERPYIWNDNEQALEQHISAIVSDITNDGIIPQAIQETLDSLRSIILFA	0.4 ± 0.02	20 ± 4.4	0 ± 0	61 ± 9.7	0 ± 0	20 ± 6.3	0 ± 0	22 ± 5.2	0 ± 0	26 ± 11	0 ± 0	30 ± 16	
